Test results reported in PMC10641220, “Pseudomonas aeruginosa AlgF is a protein–protein interaction mediator required for acetylation of the alginate exopolysaccharide” (The Journal of Biological Chemistry, 2023).

Assays:
[1] = molecular target: T1, AlgJPp^75-370 (Pseudomonas putida, UniProt Q88ND3 75-370); experiment: ITC; MicroCal Auto-ITC200, 20 °C, 50 mM Tris pH 7.8, 150 mM NaCl, 2% glycerol, 50 mM arginine, 50 mM glutamic acid; 1.86 mM AlgJ (syringe) into 188 μM AlgF (cell); 4.17 mM AlgF (syringe) into 500 μM AlgX (cell); 2.97 mM AlgJ (syringe) into 170 μM AlgX (cell); conditions: both partners purified
T1 construct: AlgJ of Pseudomonas putida, residues 75-370
T1 sequence (looked up): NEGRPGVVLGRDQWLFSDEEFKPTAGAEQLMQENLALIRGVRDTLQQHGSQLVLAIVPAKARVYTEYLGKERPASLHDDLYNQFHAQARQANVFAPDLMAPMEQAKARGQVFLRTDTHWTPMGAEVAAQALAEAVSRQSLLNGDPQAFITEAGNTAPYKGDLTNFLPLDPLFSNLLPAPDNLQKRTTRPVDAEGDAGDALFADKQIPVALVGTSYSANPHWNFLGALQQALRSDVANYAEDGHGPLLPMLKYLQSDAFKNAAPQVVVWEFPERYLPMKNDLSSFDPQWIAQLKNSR

[2] = molecular target: T2, AlgXPp (Pseudomonas putida KT2440, UniProt Q88ND0 25-479); experiment: as above; conditions: both partners purified
T2 construct: AlgX of Pseudomonas putida KT2440, codon-optimized synthetic gene of full-length AlgXPp in pET24b; AlgX is a periplasmic protein
T2 sequence (looked up): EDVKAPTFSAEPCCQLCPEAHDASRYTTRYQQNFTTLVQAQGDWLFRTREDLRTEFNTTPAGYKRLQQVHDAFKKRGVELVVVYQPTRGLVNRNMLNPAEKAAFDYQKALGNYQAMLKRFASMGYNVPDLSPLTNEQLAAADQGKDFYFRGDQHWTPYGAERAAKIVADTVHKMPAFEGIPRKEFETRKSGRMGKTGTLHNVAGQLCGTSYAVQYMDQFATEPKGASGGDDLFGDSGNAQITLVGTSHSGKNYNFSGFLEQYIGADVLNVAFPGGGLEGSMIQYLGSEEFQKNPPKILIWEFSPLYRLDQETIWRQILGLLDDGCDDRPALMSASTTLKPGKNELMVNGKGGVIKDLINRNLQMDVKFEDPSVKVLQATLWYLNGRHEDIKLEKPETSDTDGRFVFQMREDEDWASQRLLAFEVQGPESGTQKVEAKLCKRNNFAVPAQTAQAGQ

B1: AlgFPp^29-215 (domain or fragment, Pseudomonas putida KT2440, UniProt Q88ND4 29-215, looked up)
chain: DAALYGPSAPKGSTFVRLYNATSAPAAASVGNTQIKQVGAQASSDFSFLPGGDYTAQVGGKSVPVKLASDKYYTLVNSNSGSPKLIEEPPFKNKQKALVRVQNLSDQQLTLKTADGKTEVVKPVAANGRGEREINPVKVNLALYQGDKKVGDVKPVALERGEAAVLYVTGSGNALSPVWVTRPVASN
notes: the results text calls the construct 30-215; Cloned in pET28a with a 3' stop codon; also called AlgFPp^30-215; source: E. coli BL21 CodonPlus (λDE3), purified (Ni-NTA, Superdex 200 SEC)
- Kd [1]: 86 ± 12 µM
- Kd [2]: 178 ± 5 µM
